In US20200270321A1:

Experiments:
[1] = target: mouse 4-1BB on activated mouse splenocytes (mouse) (UniProt P20334); assay: flow cytometry on activated mouse splenocytes, gate CD4+ T cells; PE anti-human IgG Fc-gamma F(ab')2; median fluorescence, baseline corrected
[2] = target: mouse 4-1BB on activated mouse splenocytes (mouse) (UniProt P20334); assay: flow cytometry on activated mouse splenocytes, gate CD8+ T cells; PE anti-human IgG Fc-gamma F(ab')2; median fluorescence, baseline corrected

mouse 4-1BB on activated mouse splenocytes (mouse), sequence (P20334 24-256): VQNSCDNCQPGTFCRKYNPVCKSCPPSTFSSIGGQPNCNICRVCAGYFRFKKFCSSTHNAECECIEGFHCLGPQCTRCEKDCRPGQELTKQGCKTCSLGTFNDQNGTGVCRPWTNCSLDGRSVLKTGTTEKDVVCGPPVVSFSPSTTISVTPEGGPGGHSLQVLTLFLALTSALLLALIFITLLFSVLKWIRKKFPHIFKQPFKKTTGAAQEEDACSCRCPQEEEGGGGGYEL

An EC50 (read off the curve) [1] of 0.09 nM and an EC50 (read off the curve) [2] of 0.1 nM were found for anti-mouse Lob12.3 huIgG1 (antibody) in this work.
